From publication doi:10.1101/2020.05.16.099382 (bioRxiv, 2020)
Numbering of substitutions follows the chain as printed. Names may count otherwise. Like-named read-outs stand apart in the source and are kept apart here.

B1: NosRcaΔC (NosRca lacking the C-terminal 123 residues: linker and SSUL domain) (domain or fragment, Nostoc sp. PCC 7120, UniProt P58555 2-291, looked up)
chain: SYYIAPRFLDKLAVHITKNFLNIPGVRVPLILGIHGRKGEGKTFQCELAFEKMGIEVTLISGGELESPDAGDPARLIRLRYRETAELIKVRGKMCVLMINDLDAGAGRFDEGTQYTVNTQLVNATLMNIADNPTDVQLPGSYDSNPIRRVPIIVTGNDFSTLYAPLIRDGRMEKFYWEPNRDDKVGIVGGIFAEDGLSQREIEQLVDTFPKQSIDFFSALRSRIYDIQIRDFIHKVGFERISLRVVNSLEAPPEFKKPDFSLAHLIESGNLVLGEQQRVDNSQLVDEYNR
B2: NosRcaΔC L244D/N248A/L250A (domain or fragment, Nostoc sp. PCC 7120, UniProt P58555 2-291, looked up)
chain: B1 chain with L243D, N247A, L249A
B3: NosRcaΔC P140G/Y143A/D144A (domain or fragment, Nostoc sp. PCC 7120, UniProt P58555 2-291, looked up)
chain: B1 chain with P139G, Y142A, D143A
B4: NosRcaΔC V91E/R92G/G93N (domain or fragment, Nostoc sp. PCC 7120, UniProt P58555 2-291, looked up)
chain: B1 chain with V90E, R91G, G92N
B5: Rubisco activase ('Rca-like' protein) of Nostoc sp. PCC 7120 (natural protein, UniProt P58555 2-414, looked up)
chain: SYYIAPRFLDKLAVHITKNFLNIPGVRVPLILGIHGRKGEGKTFQCELAFEKMGIEVTLISGGELESPDAGDPARLIRLRYRETAELIKVRGKMCVLMINDLDAGAGRFDEGTQYTVNTQLVNATLMNIADNPTDVQLPGSYDSNPIRRVPIIVTGNDFSTLYAPLIRDGRMEKFYWEPNRDDKVGIVGGIFAEDGLSQREIEQLVDTFPKQSIDFFSALRSRIYDIQIRDFIHKVGFERISLRVVNSLEAPPEFKKPDFSLAHLIESGNLVLGEQQRVDNSQLVDEYNRLNRGRGYQTAPPPEAPVIQPVNNSSHKQKTSNTHLSLETQEQIRQILSQGHKITFEHVDARRFRTGSWQSCGTLHIDAESDAISTLEACLVDYDGEYVRMVGIDPKGKRRVVETIIQRPNGKN
B6: NosRca-IFmut (NosRca V91E/R92G/G93N/L244D/N248A/L250A) (natural protein, Nostoc sp. PCC 7120, UniProt P58555 2-414, looked up)
chain: B5 chain with V90E, R91G, G92N, L243D, N247A, L249A
B7: Rubisco small subunit of Nostoc sp. PCC 7120 (natural protein, UniProt P06514 1-109, looked up)
chain: MQTLPKERRYETLSYLPPLTDVQIEKQVQYILSQGYIPAVEFNEVSEPTELYWTLWKLPLFGAKTSREVLAEVQSCRSQYPGHYIRVVGFDNIKQCQILSFIVHKPSRY
B8: Rubisco large subunit of Nostoc sp. PCC 7120 (natural protein, UniProt P00879 1-476, looked up)
chain: MSYAQTKTQTKSGYKAGVQDYRLTYYTPDYTPKDTDILAAFRVTPQPGVPFEEAAAAVAAESSTGTWTTVWTDLLTDLDRYKGRCYDIEPVPGEDNQFIAYIAYPLDLFEEGSITNVLTSIVGNVFGFKALRALRLEDIRFPVAYIKTFQGPPHGIQVERDKLNKYGRPLLGCTIKPKLGLSAKNYGRAVYECLRGGLDFTKDDENINSAPFQRWRDRFLFVADAITKAQAETGEIKGHYLNVTAPTCEEMLKRAEYAKELKQPIIMHDYLTAGFTANTTLARWCRDNGVLLHIHRAMHAVIDRQKNHGIHFRVLAKALRLSGGDHIHTGTVVGKLEGERGITMGFVDLLRENYVEQDKSRGIYFTQDWASLPGVMAVASGGIHVWHMPALVEIFGDDSVLQFGGGTLGHPWGNAPGATANRVALEACVQARNEGRNLAREGNDVIREAAKWSPELAVACELWKEIKFEFEAMDTV

Columns and labels:
SEC-MALS = target: the molecule itself; assay: SEC-MALS
[1] = target: B8; assay: cryo-EM structure
[2] = target: B8; assay: cryo-EM structure; remark: listed apart in the source
cryo-EM structure = target: the molecule itself; assay: cryo-EM structure

| Binder | stoichiometry N (SEC-MALS) | further results |
| --- | --- | --- |
| B1 | 6 |  |
| B2 | 6 |  |
| B3 | 6 |  |
| B4 | 6 |  |
| B5 | 6 | binding result [1]: binds |
| B6 | 6 |  |
| B7 |  | binding result [2]: binds |
| B8 |  | binding result (cryo-EM structure): binds |
